The chains are these.
B5: P-selectin:immunoglobulin fusion protein (Fc fusion, UniProt P16109 42-321, looked up)
chain: WTYHYSTKAYSWNISRKYCQNRYTDLVAIQNKNEIDYLNKVLPYYSSYYWIGIRKNNKTWTWVGTKKALTNEAENWADNEPNNKRNNEDCVEIYIKSPSAPGKWNDEHCLKKKHALCYTASCQDMSCSKQGECLETIGNYTCSCYPGFYGPECEYVRECGELELPQHVLMNCSHPLGNFSFNSQCSFHCTDGYQVNGPSKLECLASGIWTNKPPQCLAAQCPPLKIPERGNMTCLHSAKAFQHQSSCSFSCEEGFALVGPEVVQCTASGVWTAPAPVCKA
notes: domain: lectin, EGF-related, and first two short consensus repeat related domains; Made in COS cells; captured from supernatant on wells coated with goat anti-human IgG Fc; also called soluble P-selectin; P-selectin Ig chimera; not shown: hinge, CH2, and CH3 domains of human IgG1

Assay [1] concerns the target B5. In words: static binding assay, transfected COS cells (with FTVIIh) on plastic coated with P-selectin Ig.
Procedure: The cells were then loaded with 100 µl ^51CrO_4 (1 mCi/ml; DuPont, Boston, Mass.) in 0.9% NaCl plus 100 ml medium by incubating them at 37° C. for 1 hour. Loaded cells were washed twice in PBS and resuspended in 0.2% BSA, 0.15 M NaCl, 3 mM CaCl_2. Variation in labeling rate (counts incorporated per cell) between cells prepared in parallel with the same batch of labeled chromate was typically minimal. […] After the plate was washed twice with PBS, additional protein-binding sites were blocked by an overnight incubation with 200 µl 3% BSA in PBS. The plate was washed with PBS four times and incubated with 200 µl of fusion protein supernatants for 2 hours. Following three PBS washes and one additional wash (in 0.2% BSA, 0.15 M NaCl, 3 mM CaCl_2), 2×10^5 cells/well (in 200 µl 0.2% BSA, 0.15 M NaCl, 3 mM CaCl_2) were added and allowed to bind for 15 minutes at room temperature while the plate rotated on a rotary platform (80 rpm). The plate was washed three times by filling the wells with 200 µl 0.15 M NaCl/3 mM CaCl_2 and then inverting the plate. Adherent cells were lysed by the addition of 200 µl 2% SDS, and labeled chromate was counted with a gamma ray spectrometer.
The target in assay [2] is B5. In words: adhesion of 51Cr-labelled transfected COS cells to immobilized P-selectin:Ig.
Procedure: (§1) To assess the importance of these residues, the tyrosines were converted to phenylalanine (FIG. 9A). In a second peptide, the threonines were converted to alanines. In addition, a third peptide, containing a quintuple mutation, was prepared such that both conversions were made in a single peptide. […] Cells expressing the resulting chimeras were tested for their ability to bind to immobilized P-selectin (FIG. 9A). […] Expression of the flu tag or sLe^x epitope was not affected in these cells.
In assay [3] the target is T1, PSGL-1 amino-terminal deletion beginning at precursor E58 (UniProt Q14242 58-412).
T1 construct: range 58-end (end not numbered), on cells; also called removal of the first 40 amino acids of the N-terminus
T1 sequence: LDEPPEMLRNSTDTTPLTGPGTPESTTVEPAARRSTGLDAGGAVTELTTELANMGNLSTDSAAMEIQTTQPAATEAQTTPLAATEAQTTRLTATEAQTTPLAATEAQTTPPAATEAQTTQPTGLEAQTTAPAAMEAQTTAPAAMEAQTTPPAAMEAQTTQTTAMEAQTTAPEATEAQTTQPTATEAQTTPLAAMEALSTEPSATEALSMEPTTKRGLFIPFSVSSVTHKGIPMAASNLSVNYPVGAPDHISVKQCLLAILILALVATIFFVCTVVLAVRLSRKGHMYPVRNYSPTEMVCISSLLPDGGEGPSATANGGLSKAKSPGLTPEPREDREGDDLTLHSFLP
The assay is described as above.
Procedure: as §1

Assay [4] addresses T2, PSGL-1 residues 38-57 with tyrosines converted to phenylalanine, on the truncated PSGL-1 lacking the apical … (UniProt Q14242 118-412).
T2 construct: domain: truncated PSGL-1 lacking the apical domain, on cells
T2 sequence: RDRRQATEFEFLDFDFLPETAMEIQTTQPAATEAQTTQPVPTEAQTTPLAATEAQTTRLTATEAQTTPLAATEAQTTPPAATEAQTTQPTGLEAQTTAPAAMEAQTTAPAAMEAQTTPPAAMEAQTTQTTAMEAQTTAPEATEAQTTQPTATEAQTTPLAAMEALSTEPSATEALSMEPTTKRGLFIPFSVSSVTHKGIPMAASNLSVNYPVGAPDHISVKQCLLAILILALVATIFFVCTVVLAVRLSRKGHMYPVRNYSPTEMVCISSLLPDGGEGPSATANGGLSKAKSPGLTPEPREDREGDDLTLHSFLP
The description is as above.
Procedure: as §1

The target of assay [5] is T3, PSGL-1 amino-terminal deletion beginning at precursor R38 (UniProt Q14242 38-412).
T3 construct: range 38-end (end not numbered), on cells; also called removal of the first 20 amino acids of the N-terminus of the mature PSGL-1
T3 sequence: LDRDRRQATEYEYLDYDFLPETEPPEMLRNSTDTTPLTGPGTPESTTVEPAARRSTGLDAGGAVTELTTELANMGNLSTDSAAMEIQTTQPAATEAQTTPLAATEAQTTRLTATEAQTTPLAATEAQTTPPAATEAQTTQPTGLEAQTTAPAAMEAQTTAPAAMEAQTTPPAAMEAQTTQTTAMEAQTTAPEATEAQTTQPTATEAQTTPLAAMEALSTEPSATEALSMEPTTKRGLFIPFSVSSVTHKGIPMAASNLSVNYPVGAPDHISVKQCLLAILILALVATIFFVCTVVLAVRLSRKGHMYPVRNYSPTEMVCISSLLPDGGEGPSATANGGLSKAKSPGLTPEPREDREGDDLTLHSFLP
Described as above.
Procedure: as §1

Assay [6] deals with T4, PSGL-1 amino-terminal deletion beginning at precursor A98 (UniProt Q14242 98-412).
T4 construct: range 98-end (end not numbered), on cells; also called further deletion of PSGL
T4 sequence: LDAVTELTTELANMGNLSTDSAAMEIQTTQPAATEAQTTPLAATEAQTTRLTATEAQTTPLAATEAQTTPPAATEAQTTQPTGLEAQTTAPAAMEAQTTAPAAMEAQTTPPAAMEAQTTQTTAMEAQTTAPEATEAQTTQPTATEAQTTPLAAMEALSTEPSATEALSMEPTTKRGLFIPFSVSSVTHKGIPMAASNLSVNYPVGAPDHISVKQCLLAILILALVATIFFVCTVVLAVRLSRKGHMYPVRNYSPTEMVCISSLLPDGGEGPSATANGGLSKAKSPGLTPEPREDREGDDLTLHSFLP
Described as above.
Procedure: as §1

In assay [7] the target is T5, PSGL-1 deletion mutant lacking the amino terminal 100 residues (apical domain) (UniProt Q14242 118-412).
T5 construct: range 118-end (end not numbered), on cells; Cotransfected with FTVII; also called Xba1 (label inferred from the order of the endpoints)
T5 sequence: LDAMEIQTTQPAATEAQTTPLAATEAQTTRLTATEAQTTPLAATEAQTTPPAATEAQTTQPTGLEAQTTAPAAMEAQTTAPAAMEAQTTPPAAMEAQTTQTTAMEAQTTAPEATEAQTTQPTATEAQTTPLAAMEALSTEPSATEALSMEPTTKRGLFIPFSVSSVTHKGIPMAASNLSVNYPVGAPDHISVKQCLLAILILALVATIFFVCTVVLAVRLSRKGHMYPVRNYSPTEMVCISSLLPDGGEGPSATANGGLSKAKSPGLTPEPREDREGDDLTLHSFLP
The assay is described as above.
Procedure: as §1

Assay [8] addresses T6, PSGL-1 amino-terminal deletion beginning at precursor P78 (UniProt Q14242 78-412).
T6 construct: range 78-end (end not numbered), on cells; also called further deletion of PSGL
T6 sequence: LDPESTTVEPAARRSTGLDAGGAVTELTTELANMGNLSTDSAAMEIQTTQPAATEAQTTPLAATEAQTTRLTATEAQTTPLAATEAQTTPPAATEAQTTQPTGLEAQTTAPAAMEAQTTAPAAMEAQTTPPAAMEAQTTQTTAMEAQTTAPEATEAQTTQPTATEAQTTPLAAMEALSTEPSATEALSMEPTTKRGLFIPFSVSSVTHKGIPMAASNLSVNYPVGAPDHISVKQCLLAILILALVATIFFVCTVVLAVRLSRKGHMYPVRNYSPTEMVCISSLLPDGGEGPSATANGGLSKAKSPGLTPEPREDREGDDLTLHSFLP
Described as above.
Procedure: as §1

B1: Factor VIII-CD43 synthetic P-selectin ligand (designed binder)
chain: TGDYYEDSYEDISITTNSPETSSRTSGAPVTTAASSLETSRGTSGPPLTMATVSLETSKGTSGPPVTMATDSLETSTGTTGPPVTMTTGSLEPSSGASGPQVSS
modifications: tyrosine sulfation site of Factor VIII; sLe^x (FTVIIh cotransfected)
notes: also called CD43-F8; not shown: flu hemagglutinin oligopeptide tag
For the molecule B1, the binding result in assay [1] is “binds”.

B2: PSGL-1 residues 38-57 (wildtype) appended to the CD43 mucin core (ligand, not shown: small tags and cut ends)
chain: RDRRQATEYEYLDYDFLPETITTNSPETSSRTSGAPVTTAASSLETSRGTSGPPLTMATVSLETSKGTSGPPVTMATDSLETSTGTTGPPVTMTTGSLEPSSGASGPQVSS
modifications: as the filing concludes: sulfated tyrosines at 46, 48 and 51; sLe^x on threonines 44 and 57
notes: Cotransfected with FTVII
For B2, the binding result in assay [2] is on record as “binds”.

B3: PSGL-1 residues 38-57 with threonines converted to alanines, on the CD43 repeat elements and transmembrane domain (ligand, not shown: small tags and cut ends)
chain: RDRRQAAEYEYLDYDFLPEAITTNSPETSSRTSGAPVTTAASSLETSRGTSGPPLTMATVSLETSKGTSGPPVTMATDSLETSTGTTGPPVTMTTGSLEPSSGASGPQVSS
As for B3, the binding result in assay [2] is reported as “binds”.

B4: PSGL-1 residues 38-57 with tyrosines converted to phenylalanine, on the CD43 repeat elements and transmembrane domain (ligand, not shown: small tags and cut ends)
chain: RDRRQATEFEFLDFDFLPETITTNSPETSSRTSGAPVTTAASSLETSRGTSGPPLTMATVSLETSKGTSGPPVTMATDSLETSTGTTGPPVTMTTGSLEPSSGASGPQVSS
Consider B4, for which the binding result in assay [2] is “no binding”.
Regarding B5, the binding result is given as “no binding” in assay [3]; “no binding” in assay [4]; “binds” in assay [5]; “no binding” in assay [6]; “no binding” in assay [7]; “no binding” in assay [8].

B6: PSGL-1-NH2/CD43 rep. (ligand, not shown: small tags and cut ends)
chain: LQLWDTWADEAEKALGPLLARDRRQATEYEYLDYDFLPETEPPEMLRNSTDTTPLTGPGTPESTTVEPAARRSTGLDAGGAVTELTTELANMGNLSTDSAEFITTNSPETSSRTSGAPVTTAASSLETSRGTSGPPLTMATVSLETSKGTSGPPVTMATDSLETSTGTTGPPVTMTTGSLEPSSGASGPQVSS
notes: range mature amino terminus-117; Cotransfected with FTVIIh; also called PSGL-1-NH2/CD43 repeats; PSGL-1 apical domain on the CD43 repeat region
Take B6: the binding result in assay [2] was “binds”.

The values are drawn from patent publication US7399847 (GENERAL HOSPITAL, dated 2008).
